In this assay the target is Cat1-His6 (CRISPR-associated TIR protein 1, homolog MCI0612855.1). Kind of assay: SEC-MALS; Cat1-His6 with NAD+ (1:10 molar ratio), no cA4; Superose 6 10/300 increase; 25 mM MES pH 6, 200 mM NaCl, 2 mM β-mercaptoethanol, 5 % glycerol. In general terms: Size exclusion chromatography separates by hydrodynamic size, large species first.

Stoichiometry N data for one substance are collected here from article PMC12162218.

In the case of “Cat1-His6 (CRISPR-associated TIR protein 1, homolog MCI0612855.1) (enzyme)”, the stoichiometry N (in general, a count of units in the complex or per binding partner) was 2.
